Reference: publication PMC3636572

B1: RNAR9D-14T (XNA)
RNA: GGCGGUCGAUCACACAGUUCAAACGUAAUAAGCCAAUGUACGAGGCAGACGACUCGCC
modifications: 2'-fluoro on all C and U; purines 2'-OH
B2: biotin-RNAR9D-14T (XNA)
RNA: GGCGGUCGAUCACACAGUUCAAACGUAAUAAGCCAAUGUACGAGGCAGACGACUCGCC
modifications: 2'-fluoro on all C and U; purines 2'-OH

Assays:
[1] = biological target: T1, prothrombin (Homo sapiens, UniProt P00734 44-622); test: filter binding
[2] = biological target: beta-thrombin (UniProt P00734;P00734;P00734 328-363;364-425;437-622); test: filter binding
[3] = biological target: porcine thrombin (pig, UniProt Q19AZ8;Q19AZ8 316-364;365-623); test: filter binding
[4] = biological target: T1, prothrombin; test: SPR

Binder | Kd [1] [nM] | Kd [2] [nM] | Kd [3] [nM] | Kd [4] [nM]
B1 | 10 | 20 | 5 | 
B2 |  |  |  | 1.4
